From article PMC4469479 come the findings set out here.

Substrate in the data set: NCCc1ccc(O)c(O)c1
Nature of the data set: cells, lysate or membranes. Particulars: other: HEK293S cells; 14C-DA 0.3–60 μM; s.e.m.; pH 7.4.

B1: dDATwt (Drosophila melanogaster) (protein)
chain: MSPTGHISKSKTPTPHDNDNNSISDERETWSGKVDFLLSVIGFAVDLANVWRFPYLCYKNGGGAFLVPYGIMLVVGGIPLFYMELALGQHNRKGAITCWGRLVPLFKGIGYAVVLIAFYVDFYYNVIIAWSLRFFFASFTNSLPWTSCNNIWNTPNCRPFESQNASRVPVIGNYSDLYAMGNQSLLYNETYMNGSSLDTSAVGHVEGFQSAASEYFNRYILELNRSEGIHDLGAIKWDMALCLLIVYLICYFSLWKGISTSGKVVWFTALFPYAVLLILLIRGLTLPGSFLGIQYYLTPNFSAIYKAEVWVDAATQVFFSLGPGFGVLLAYASYNKYHNNVYKDALLTSFINSATSFIAGFVIFSVLGYMAHTLGVRIEDVATEGPGLVFVVYPAAIATMPASTFWALIFFMMLLTLGLDSSFGGSEAIITALSDEFPKIKRNRELFVAGLFSLYFVVGLASCTQGGFYFFHLLDRYAAGYSILVAVFFEAIAVSWIYGTNRFSEDIRDMIGFPPGRYWQVCWRFVAPIFLLFITVYGLIGYEPLTYADYVYPSWANALGWCIAGSSVVMIPAVAIFKLLSTPGSLRQRFTILTTPWRDQQSMAMVLNGVTTEVTVVRLTDTETAKEPVDV
For the protein B1, the Km worked out at 2.1 ± 0.7 µM.

As usually defined, the Km is the substrate concentration at which the rate is half of its maximum.
